Measurements published in the supplement of paper PMC10724198.
± gives the standard deviation of the averaged measurements.

Tested on: Saccharomyces cerevisiae
Assay: protein stability index of tFT-peptide fusion (C-terminal peptide) (PSI (0-1 scale)); higher = more stable (slower turnover)
Conditions: genetic background: das1 deletion; temperature: 30 C
Method: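 MPS profiling in S. cerevisiae of the yeast C-terminome library: the last 12 aa of each annotated ORF are fused to the C-terminus of a sfGFP-mCherry timer, after a GGGS linker. Cells are FACS-sorted into 8 mCherry/sfGFP bins and deep-sequenced. PSI runs from 0 (unstable) to 1 (stable); wild type and das1Δ backgrounds, two technical replicates each.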

Row | Sequence | protein stability index
1 | SKNTREEKPTEL [MMM1 C-terminal 12 aa] | 0.698 ± 0.011
2 | SKPALGTCLYEQ [GAL3 C-terminal 12 aa] | 0.676 ± 0.0096
3 | SLEKLEMSKYGL [YKL033W-A C-terminal 12 aa] | 0.6995 ± 0.0021
4 | SLRSFFVKQKVL [ERP6 C-terminal 12 aa] | 0.641 ± 0.0083
5 | SLSARKINMRKV [KRE9 C-terminal 12 aa] | 0.705 ± 0.033
6 | SMALRTVSILEN [YGL152C C-terminal 12 aa] | 0.683 ± 0.011
7 | SMKYPHTAALVR [YLR111W C-terminal 12 aa] | 0.578 ± 0.027
8 | SNGFKEWRKSLK [RAI1 C-terminal 12 aa] | 0.6824 ± 0.0012
9 | SNSSSSQKAAKE [HST2 C-terminal 12 aa] | 0.71 ± 0.033
10 | SNWARIFFCHHD [YDL186W C-terminal 12 aa] | 0.75 ± 0.015
11 | SPSPKPQHRRKR [ELO2 C-terminal 12 aa] | 0.734 ± 0.025
12 | SQLLLFGFGAMV [MDM32 C-terminal 12 aa] | 0.6998 ± 0.0031
13 | SQSCPFFPLMDD [YDR246W-A C-terminal 12 aa] | 0.738 ± 0.012
14 | SQSKIKAKIRPE [YJL193W C-terminal 12 aa] | 0.7134 ± 0.0044
15 | SRFLKRKSHHDK [SEC1 C-terminal 12 aa] | 0.687 ± 0.0091
16 | SRIELELKNIGL [ECM29 C-terminal 12 aa] | 0.684 ± 0.0096
17 | SRILQYKCIFTY [ARP8 C-terminal 12 aa] | 0.517 ± 0.023
18 | SRTPPARRQRHR [CWC22 C-terminal 12 aa] | 0.7133 ± 0.0015
19 | SSDEEENEKELP [PWP2 C-terminal 12 aa] | 0.67854 ± 0.00042
20 | SSKAIQGNFDDL [SPB4 C-terminal 12 aa] | 0.704 ± 0.018
21 | SSLDEVLAKDKD [MIN8 C-terminal 12 aa] | 0.736 ± 0.018

Row | Sequence | protein stability index
22 | SSSSFISYPPQR [MAD3 C-terminal 12 aa] | 0.728 ± 0.019
23 | STAVRSIDALKN [HSP31 C-terminal 12 aa] | 0.701 ± 0.042
24 | STERAKELLESN [MRF1 C-terminal 12 aa] | 0.666 ± 0.026
25 | STGSETKIADCR [HSM3 C-terminal 12 aa] | 0.683 ± 0.01
26 | STSGESFTETQF [ICL2 C-terminal 12 aa] | 0.6971 ± 0.0022
27 | STTIRAINALYS [HSP32 C-terminal 12 aa] | 0.675 ± 0.017
28 | SVFGEAEEVTNW [MET2 C-terminal 12 aa] | 0.701 ± 0.017
29 | SVTSKFKKYPYK [BET2 C-terminal 12 aa] | 0.7131 ± 0.0021
30 | SWISKEKRVSEE [HXT2 C-terminal 12 aa] | 0.731 ± 0.032
31 | SWLYNFDELLWQ [ALG8 C-terminal 12 aa] | 0.761 ± 0.011
32 | SYNDPALADFMP [NRE1 C-terminal 12 aa] | 0.7154 ± 0.007
33 | TAEPNRNVNQMP [YDL218W C-terminal 12 aa] | 0.678 ± 0.017
34 | TASEIQRTKSSI [YGR035C C-terminal 12 aa] | 0.711 ± 0.03
35 | TDEFDMLIGIDH [COG6 C-terminal 12 aa] | 0.697 ± 0.024
36 | TDLENETFIYPL [YCT1 C-terminal 12 aa] | 0.722 ± 0.022
37 | TDNTVYQKFLKY [ILV1 C-terminal 12 aa] | 0.674 ± 0.014
38 | TDVKKFIHELCE [TRP3 C-terminal 12 aa] | 0.69 ± 0.014
39 | TEKKINTRPPFR [DAM1 C-terminal 12 aa] | 0.7012 ± 0.0011
40 | TEMATDASARMV [TPO4 C-terminal 12 aa] | 0.687 ± 0.0097
41 | TEPVKQVLGNKE [NMA1 C-terminal 12 aa] | 0.689 ± 0.012
42 | TFFDIRQKFVVV [BOP2 C-terminal 12 aa] | 0.493 ± 0.012

Row | Sequence | protein stability index
43 | TFLYYYFPLPTN [YPL080C C-terminal 12 aa] | 0.656 ± 0.029
44 | TFPLVMMKTTYY [YFR009W-A C-terminal 12 aa] | 0.72 ± 0.065
45 | TGTSNSVLVIIT [YPL136W C-terminal 12 aa] | 0.677 ± 0.013
46 | THKKPGFENYSI [IRC13 C-terminal 12 aa] | 0.70632 ± 0.00041
47 | TIAIGKIVKIAE [SUP35 C-terminal 12 aa] | 0.7085 ± 0.0052
48 | TIIYPLFIFFSL [YMR105W-A C-terminal 12 aa] | 0.312 ± 0.022
49 | TISRLPPRSWTN [YCL042W C-terminal 12 aa] | 0.717 ± 0.037
50 | TIYDGEAVAKYI [PRE5 C-terminal 12 aa] | 0.6775 ± 0.0025
51 | TKAIEDAKKEMK [NUP2 C-terminal 12 aa] | 0.714 ± 0.013
52 | TKISIRKAPKFF [MRPL31 C-terminal 12 aa] | 0.701 ± 0.019
53 | TKNLVPGFSDLM [SEC61 C-terminal 12 aa] | 0.708 ± 0.012
54 | TKNTCIRRLSNQ [YLR031W C-terminal 12 aa] | 0.709 ± 0.018
55 | TLISGKEDGPTI [SRY1 C-terminal 12 aa] | 0.69 ± 0.028
56 | TLKKRFGLVPGQ [NOP10 C-terminal 12 aa] | 0.7141 ± 0.0036
57 | TLKKVTQNFYFD [LMO1 C-terminal 12 aa] | 0.7094 ± 0.0054
58 | TLVADQEDDVIF [VMA8 C-terminal 12 aa] | 0.7039 ± 0.0067
59 | TLVGTPGYRITL [RCE1 C-terminal 12 aa] | 0.7168 ± 0.0018
60 | TNDRLQSILHDL [MEF2 C-terminal 12 aa] | 0.7148 ± 0.0071
61 | TNERQLNPWICN [YML090W C-terminal 12 aa] | 0.7061 ± 0.0031
62 | TPDVLAAGPQFE [PCK1 C-terminal 12 aa] | 0.7065 ± 0.0036
63 | TQKKVDQRWKKH [SEN54 C-terminal 12 aa] | 0.692 ± 0.016

Row | Sequence | protein stability index
64 | TQLVQKALERFK [RIC1 C-terminal 12 aa] | 0.734 ± 0.025
65 | TSDGSASDLEII [MCM10 C-terminal 12 aa] | 0.686 ± 0.0096
66 | TSLEKQINSIKK [NSP1 C-terminal 12 aa] | 0.753 ± 0.036
67 | TSNGGVEETMKM [ARX1 C-terminal 12 aa] | 0.6815 ± 0.00071
68 | TSNSPSPDLMEK [SMA2 C-terminal 12 aa] | 0.7018 ± 0.0012
69 | TSPPEGMEPKHW [SGT1 C-terminal 12 aa] | 0.696 ± 0.013
70 | TVIFSCVPGRRV [RAX1 C-terminal 12 aa] | 0.7205 ± 0.0062
71 | TVNYNDKTISGN [VPS30 C-terminal 12 aa] | 0.689 ± 0.022
72 | TYNSYTEPEELR [FMP27 C-terminal 12 aa] | 0.692 ± 0.025
73 | VAHRENLAFPPR [PRO1 C-terminal 12 aa] | 0.732 ± 0.02
74 | VARRITDHTCLM [YLR364C-A C-terminal 12 aa] | 0.677 ± 0.0084
75 | VCKFASWLFSKI [AMD2 C-terminal 12 aa] | 0.72 ± 0.041
76 | VDHLTDPDIYIP [BUB2 C-terminal 12 aa] | 0.7 ± 0.017
77 | VERNHPVITNIS [YCR087W C-terminal 12 aa] | 0.7114 ± 0.0043
78 | VESPTLFCVCTQ [YPR170C C-terminal 12 aa] | 0.6115 ± 0.0024
79 | VFWKLKSRKLRI [MCH1 C-terminal 12 aa] | 0.692 ± 0.0085
80 | VGENNYYAESII [COS111 C-terminal 12 aa] | 0.714 ± 0.024
81 | VGRKPRLPKGKL [YCL002C C-terminal 12 aa] | 0.758 ± 0.021
82 | VHPNWSPFEVFK [GCY1 C-terminal 12 aa] | 0.744 ± 0.033
